Stoichiometry N (RBD per ACE2 dimer) and Kd data for five substances are collected here from publication PMC12360793.

In general, Kd refers to the equilibrium constant for the complex coming apart.

The target in experiment [1] is dimeric P.dav ACE2 ectodomain (cryo-EM sample with MOW15–22 RBD) (P.dav (a Pteronotus bat)). The experiment in a line: cryo-EM structure.
The target of experiment [2] is biotinylated monomeric MOW15–22 RBD (MOW15–22 (bat MERSr-CoV sampled in Pipistrellus nathusii)). The experiment in a line: BLI.
Experiment [3] concerns the target biotinylated monomeric PnNL2018B RBD (PnNL2018B (bat MERSr-CoV sampled in Pipistrellus nathusii)). The experiment in a line: BLI. For orientation: In BLI a coated tip is dipped into the sample, and binding shifts an interference pattern.

In the case of “MOW15–22 RBD (cryo-EM sample with P.dav ACE2) (from UniProt Q56H28 360-611) (domain or fragment)”, the stoichiometry N (RBD per ACE2 dimer) in experiment [1] is less than 1.

“dimeric P.dav ACE2 ectodomain (residues 17–728, avi-His8) (from UniProt Q56H28 17-728) (domain or fragment)”: in experiment [2], the Kd was 6.38 nM.

For “dimeric P.nat ACE2 ectodomain (residues 17–729, avi-His8) (domain or fragment)”, the Kd was 12.8 nM in experiment [2] and 897 nM in experiment [3].

Turning to “monomeric P.dav ACE2 ectodomain (residues 17–613, avi-His8) (from UniProt Q56H28 17-613) (domain or fragment)”, in experiment [2], the equilibrium dissociation constant (Kd) is 1070 nM.

As for “monomeric P.nat ACE2 ectodomain (residues 17–614, avi-His8) (domain or fragment)”, the Kd in experiment [2] worked out at 1450 nM.
